Assay results: US20110269234

Tested on: KDR-targeted ZFN pair (artificial)
Test: cell_activity
Conditions: HeLa; up to about 25% with 30 C cold shock versus 1% at 37 C

KDR locus target
activity (% modified chromatids): 25
